4 molecules from publication PMC7545189, “Structural characterization of the ICOS/ICOS-L immune complex reveals high molecular mimicry by therapeutic antibodies” (Nature Communications, 2020) can be followed below.

Assay [1] addresses T1, human ICOS-L ectodomain (residues 19-248), His-tagged, immobilised on Ni-NTA biosensors (human, UniProt O75144).
T1 construct: also called ICOS ligand; CD275; source: HEK 293F, transiently transfected, purified from the supernatant (HisTrap Ni-NTA); not shown: His6, C-terminal, kept
Briefly: BLI; His-tagged ICOS or ICOS-L on Ni-NTA biosensors, Fabs as analytes (prezalumab 1:2 serial dilutions from 31 nM); PBS pH 7.4, 0.01% BSA, 0.002% Tween; 1:1 fit. Conditions: both partners purified. On the technique in general: BLI is a label-free optical method that tracks binding on a fibre tip over time.

The target of assay [2] is T2, human ICOS-L ectodomain (residues 19-248), His-tagged, immobilised on Ni-NTA biosensors (human, UniProt O75144 19-248).
T2 chain: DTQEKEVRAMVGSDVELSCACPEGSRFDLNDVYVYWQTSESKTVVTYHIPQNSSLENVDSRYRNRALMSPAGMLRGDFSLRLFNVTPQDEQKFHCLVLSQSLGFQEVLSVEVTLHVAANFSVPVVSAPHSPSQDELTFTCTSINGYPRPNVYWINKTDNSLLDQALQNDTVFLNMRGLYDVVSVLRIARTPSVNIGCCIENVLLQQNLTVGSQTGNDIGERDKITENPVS
Briefly: BLI.

Assay [3] has as its target T2, human ICOS-L ectodomain (residues …). Briefly: BLI.
Assay [4] has as its target T3, human ICOS-L ectodomain (residues 19-248), crystallised in complexes (human, UniProt O75144).
T3 construct: not shown: Venus (monomeric variant), C-terminal, cleaved; His6, C-terminal, cleaved
Briefly: crystal structure; ICOS-L/prezalumab Fab/VNAR complex, co-expressed and co-purified, 3.15 A; 0.2 M di-ammonium tartrate, 20% PEG 3350. The note with it: both partners purified.

In assay [5] the target is T4, human ICOS-L ectodomain (residues 19-248), untagged monomer (human, UniProt O75144 19-248).
T4 construct: Residues of the TEV site probably remain at the C-terminus after cleavage; also called ICOS-L ectodomain monomer; CD275; source: HEK 293F, transiently transfected, purified (HisTrap Ni-NTA, TEV digestion, second Ni-NTA, Superdex 200); not shown: Venus (monomeric variant), C-terminal, cleaved; His6, C-terminal, cleaved
T4 sequence (looked up): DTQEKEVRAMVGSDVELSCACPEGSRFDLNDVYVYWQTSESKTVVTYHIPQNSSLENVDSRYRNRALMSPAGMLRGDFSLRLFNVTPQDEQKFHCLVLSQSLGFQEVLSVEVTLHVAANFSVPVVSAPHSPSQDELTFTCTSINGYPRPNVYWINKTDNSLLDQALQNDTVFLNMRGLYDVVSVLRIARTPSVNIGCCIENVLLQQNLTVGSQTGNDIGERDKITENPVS
Briefly: BLI; His-tagged ICOS on Ni-NTA biosensors (0.8 nm), untagged ICOS-L as analyte, 1:2 serial dilutions from 500 nM; PBS pH 7.4, 0.01% BSA, 0.002% Tween; 180 s association and dissociation; 1:1 fit. Conditions: both partners purified.

Assay [6] addresses T5, human ICOS-L ectodomain (residues 19-248), His-tagged, immobilised on Ni-NTA biosensors (human, UniProt O75144 19-248).
T5 construct: also called ICOS ligand; CD275; source: HEK 293F, transiently transfected, purified from the supernatant (HisTrap Ni-NTA); not shown: His6, C-terminal, kept
T5 sequence (looked up): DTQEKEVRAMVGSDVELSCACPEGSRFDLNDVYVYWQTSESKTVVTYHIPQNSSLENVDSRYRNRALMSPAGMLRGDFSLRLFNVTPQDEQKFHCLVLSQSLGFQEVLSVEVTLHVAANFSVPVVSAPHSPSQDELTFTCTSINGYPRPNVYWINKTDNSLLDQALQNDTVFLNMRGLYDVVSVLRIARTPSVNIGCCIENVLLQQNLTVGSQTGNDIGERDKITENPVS
Briefly: BLI; His-tagged ICOS-L on Ni-NTA biosensors (0.8 nm), untagged ICOS (wild-type and mutants) as analyte, 1:2 serial dilutions from 125 nM; PBS pH 7.4, 0.01% BSA, 0.002% Tween; 1:1 fit; apparent constant (avidity of the ICOS homodimer). Conditions: both partners purified.

B1: prezalumab Fab (purified, for BLI) (Fab, V domains shown)
VH: EVQLVESGGGLVQPGGSLRLSCAASGFTFSSYWMSWVRQAPGKGLEWVAYIKQDGNEKYYVDSVKGRFTISRDNAKNSLYLQMNSLRAEDTAVYYCAREGILWFGDLPTFWGQGTLVTVSS
VL: DIQMTQSPSSLSASVGDRVTITCRASQGISNWLAWYQQKPEKAPKSLIYAASSLQSGVPSRFSGSGSGTDFTLTISSLQPEDFATYYCQQYDSYPRTFGQGTKVEIK
notes: Fab heavy chain of prezalumab; Fab light chain of prezalumab; Purified on KappaSelect; also called humanized monoclonal anti ICOS-L antibody; source: HEK 293F, transiently co-transfected LC and HC, purified (KappaSelect, MonoS, Superdex 200)
In the case of B1, the binding result in assay [1] is recorded as “binds”. Besides, in assay [2], the koff (commonly the first-order rate constant of dissociation) is 0.0045 s⁻¹. Moreover, the Kd in assay [3] was 5.5 nM.

B2: prezalumab Fab (co-expressed with ICOS-L and VNAR, for the crystal structure) (Fab, V domains shown)
VH: EVQLVESGGGLVQPGGSLRLSCAASGFTFSSYWMSWVRQAPGKGLEWVAYIKQDGNEKYYVDSVKGRFTISRDNAKNSLYLQMNSLRAEDTAVYYCAREGILWFGDLPTFWGQGTLVTVSS
VL: DIQMTQSPSSLSASVGDRVTITCRASQGISNWLAWYQQKPEKAPKSLIYAASSLQSGVPSRFSGSGSGTDFTLTISSLQPEDFATYYCQQYDSYPRTFGQGTKVEIK
notes: as the heavy chain of m14; as the light chain of m14; source: HEK 293S (Gnt I-/-), co-transfected with ICOS-L and VNAR, complex purified
B2: the binding result in assay [4] is “binds”.

B3: human ICOS ectodomain (residues 21-138), His-tagged, immobilised on Ni-NTA biosensors (receptor, UniProt Q9Y6W8 21-138, looked up)
chain: EINGSANYEMFIFHNGGVQILCKYPDIVQQFKMQLLKGGQILCDLTKTKGSGNTVSIKSLKFCHSQLSNNSVSFFLYNLDHSHANYYFCNLSIFDPPPFKVTLTGGYLHIYESQLCCQ
notes: human ICOS ectodomain, UniProtKB Q9Y6W8, residues 21-138, followed by a TEV cleavage site; The His6 tag of the vector lies C-terminal of TEV site and Venus, so the His-tagged form used for loading is probably the undigested ICOS-TEV-Venus-His6 fusion; also called inducible T-cell co-stimulator; CD278; source: HEK 293F, transiently transfected, purified from the supernatant (HisTrap Ni-NTA); not …
As to B3, in assay [5], the Kd worked out at 722 nM and the koff was determined as 0.16 s⁻¹.

B4: human ICOS ectodomain (residues 21-138), untagged, disulfide-linked homodimer (receptor, UniProt Q9Y6W8 21-138, looked up)
chain: EINGSANYEMFIFHNGGVQILCKYPDIVQQFKMQLLKGGQILCDLTKTKGSGNTVSIKSLKFCHSQLSNNSVSFFLYNLDHSHANYYFCNLSIFDPPPFKVTLTGGYLHIYESQLCCQ
notes: human ICOS ectodomain, UniProtKB Q9Y6W8, residues 21-138; Residues of the TEV site probably remain at the C-terminus after cleavage; also called ICOS WT; ICOS disulfide-linked homodimers; source: HEK 293F, transiently transfected, purified (HisTrap Ni-NTA, TEV digestion, second Ni-NTA, Superdex 200); not shown: Venus (monomeric variant), C-terminal, cleaved; His6, C-terminal, cleaved
B4: in assay [6], the Kd was found to be 10 nM.
